# Data: patent publication US20110274692A1 (published 2011)
# Target: T1, INS/INSR complex (human, UniProt P06213 28-1382; P01308 25-110, limits assumed)
# T1 construct: cells carrying INSR pre-exposed to human insulin (150 nM for CHO-K1 hINSR cells); also called R-L; INSR with insulin
# Test: ratio of the value for R to the value for R-L, Table 2
row,Binder,KD ratios (R against R-L)
1,"Ab062 (antibody, V domains shown) VH: QVQLQQWGAGLLKPSETLSLTCAVYGGSFSGYYWSWIRQPPGKGLEWIGEINHSGSTNYNPSLKSRVTISVDTSKNQFSLKLSSVTAADTAVYYCARGPSGWYIREFDYWGQGTLVTVSS VL: QSVLTQPPSVSGAPGQRVTISCTGSSSNIGAGYDVHWYQQLPGTAPKLLIYGNSNRPSGVPDRFSGSKSGTSASLAITGLQAEDEADYYCQSYDSSLSGSGVFGGGTKVTVL",1.1
2,"Ab079 (antibody, V domains shown) VH: QMQLVQSGAEMKKPGASVKVSCKASGYSFSDYGITWVRQAPGQGPEWMGWISGYNGNTNYAQKFQDRVTMTTDTSTSTAYMELRSLKSDDTAVYFCARARGVWMFDNWGQGTLVTVSS VL: AIRMTQSPSTLSASVGDRVTITCRASQSISTWLAWYQQKPGKAPKLLIYTTSTLESGVPSRFSGSRSGTEFTLTISSLQPDDFATYYCQQYNSYPLTFGGGTKVEIK",19.4
3,"Ab001 (antibody, V domains shown) VH: EVQLLESGGGLVQPGGSLRLSCAASGFTFSSYEMNWVRQAPGKGLEWVSSISSSSSYIYYADSVKGRFTISRDNSKNTLYLQMNSLRAEDTAVYYCARVRWYKDSDAFDIWGQGTLVTVSS VL: not shown",103

# Second part, the binder after the results:
row,KD ratios (R against R-L),Binder
1,1.4,"Ab037 (antibody, V domains shown) VH: EVQLLESGGGLVQPGGSLRLSCAASGFTFSSYEMNWVRQAPGKGLEWVSSISSSSRYADVANSVVGRFTISRDNSKNTLYLQMNSLRAEDTAVYYCARGEWLDHFDYWGQGTLVTVSS VL: QSVLTQPPSASGTPGQRVTISCSGSSSNIGNSAVNWYQQLPGTAPKLLIYDNNKRPSGVPDRFSGSKSGTSASLAISGLRSEDEADYYCQVWDSGTAVFGGGTKLTVLG"
2,1.5,"Ab053 (antibody, V domains shown) VH: not shown VL: QSALTQPRSVSESPGKTVTISCTGSGGSIGSNYVQWYQQRPGSAPTTVIFEDNRRPSGVPDRFSGSIHSSSNSASLTISGLKTEDEADYYCQSYVGTIVVFGGGTKVTVL"
3,20.2,"Ab083 (antibody, V domains shown) VH: not shown VL: AIQLTQSPSSLSASVGDRVTISCRASQSITSYLNWYQQKPGKAPNLLIYAASSLQSGVPSRFSGSGSGTDFTLTIAGLQPEDFATYYCQQFDSYPFTFGGGTKLEIK"
4,17.6,"Ab080 (antibody, V domains shown) VH: EVQLVESGGGVVQPGGSLRLSCAASGFTFDDYAMHWVRQAPGKGLEWVSLISWDGGSTYYADSVKGRFTISRDNSKNSLYLQMNSLRAEDTALYYCAKARGVVIIDYWGQGTLVTVSS VL: EIVLTQSPGTLSLSPGERATLSCRASQSLSSSFLAWYQQKPGQAPRLLIYGAGSRATGVPDRFSGSGYGTDFSLTISRLELEDFAVYYCQQYDRSQITFGQGTRLEIK"
